Conditions: Halorhodospira halophila, Thermal, DSC, reversible: yes, whole UniProt chain shown

B1: High-potential iron-sulfur protein isozyme 1 wild type, P04168 (protein)
chain: EPRAEDGHAHDYVNEAADASGHPRYQEGQLCENCAFWGEAVQDGWGRCTHPDFDEVLVKAEGWCSVYAPAS
B1 showed a Tm (pH 7, MOPS 20 mM) of 67.7 °C, a Tm (pH 9, TAPS 20 mM) of 66.4 °C and a Tm (pH 10, CAPS 20 mM) of 66.5 °C. The Tm (pH 11, piperidine 40 mM) was 50.3 °C.

— FireProtDB (doi:10.1002/pro.5560041213)
